Data on seven substances can be found in PMC2562391.

What all share (assay): FRET or BRET; two-photon FLIM-FRET in living HeLa cells co-transfected with 0.5 μg of each plasmid, 24 h post transfection; eGFP fusion as donor, mCherry or mCherry fusion as acceptor; E from the donor lifetime with and without acceptor; read at the nuclear envelope, in the cytoplasm, in the nucleus and over the whole cell
Assay [1] concerns the target I60A Vpr-mCherry (HIV-1 (strain LAI)).
Assay [2] addresses Q3R Vpr-mCherry (HIV-1 (strain LAI)).
The target of assay [3] is R77Q Vpr-mCherry (HIV-1 (strain LAI)).
Assay [4] has as its target R90K Vpr-mCherry (HIV-1 (strain LAI)).
For assay [5], the target named is Vpr-mCherry (HIV-1 (strain LAI)).
Assay [6] concerns the target mCherry-Vpr (HIV-1 (strain LAI)).
The target in assay [7] is W54G Vpr-mCherry (HIV-1 (strain LAI)).

In assay [1], I60A-Vpr-eGFP (natural protein) gave an FRET efficiency E (nucleus) of 7% and an FRET efficiency E (whole cell) of 6%.
As for Q3R Vpr-eGFP (natural protein), in assay [2], the FRET efficiency E (whole cell) is 19%.
As to R77Q Vpr-eGFP (natural protein), the FRET efficiency E (whole cell) in assay [3] was 22%.
In turn, R90K Vpr-eGFP (natural protein) came in with an FRET efficiency E (whole cell) in assay [4] of 18%.
In assay [5], Vpr-eGFP (natural protein) yielded an FRET efficiency E (cytoplasm) of 23%, an FRET efficiency E (nuclear envelope) of 27%, an FRET efficiency E (nucleus) of 19% and an FRET efficiency E (whole cell) of 23%. In assay [6], this substance displayed an FRET efficiency E (cytoplasm) of 14%, an FRET efficiency E (nuclear envelope) of 17%, an FRET efficiency E (nucleus) of 13% and an FRET efficiency E (whole cell) of 15%.
In assay [7], W54G Vpr-eGFP (natural protein) came in with an FRET efficiency E (whole cell) of 16%.
As to eGFP-Vpr (natural protein), in assay [5], the FRET efficiency E (cytoplasm) worked out at 9%, the FRET efficiency E (nuclear envelope) is 13%, the FRET efficiency E (nucleus) is 6% and the FRET efficiency E (whole cell) was 9%. Further, in assay [6], the FRET efficiency E (cytoplasm) is 7%, the FRET efficiency E (nuclear envelope) was found to be 13%, the FRET efficiency E (nucleus) was found to be 6% and the FRET efficiency E (whole cell) was 8%.
